The target of assay [1] is T1, human GPC1 on the surface of GPC1-positive cancer cells (TE8, TE14, BxPC-3) (human, UniProt P35052 24-530).
T1 construct: Endogenous GPC1 of human esophageal (TE8, TE14) and pancreatic (BxPC-3) cancer cell lines; also called GPC1 on the surface of the TE8 cell; Glypican-1
T1 sequence: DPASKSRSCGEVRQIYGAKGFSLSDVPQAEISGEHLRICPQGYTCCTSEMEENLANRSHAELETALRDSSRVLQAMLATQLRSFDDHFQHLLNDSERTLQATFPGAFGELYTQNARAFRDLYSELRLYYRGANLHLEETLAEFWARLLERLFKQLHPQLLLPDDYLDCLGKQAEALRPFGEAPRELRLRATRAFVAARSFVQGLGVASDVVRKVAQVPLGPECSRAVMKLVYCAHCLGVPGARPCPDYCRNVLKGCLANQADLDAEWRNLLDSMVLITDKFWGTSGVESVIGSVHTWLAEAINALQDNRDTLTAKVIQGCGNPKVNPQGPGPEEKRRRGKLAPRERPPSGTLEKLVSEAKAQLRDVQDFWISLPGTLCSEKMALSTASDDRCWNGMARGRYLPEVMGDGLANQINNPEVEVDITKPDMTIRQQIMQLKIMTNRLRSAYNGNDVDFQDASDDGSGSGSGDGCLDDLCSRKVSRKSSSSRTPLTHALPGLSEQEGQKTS
In words: flow cytometry on BxPC3 cells, antibody titration, FITC anti-human IgG as secondary antibody. As to the method: In the FACS analysis using the antibody, cells of human pancreatic cancer cell line (BxPC-3) were used as GPC1-positive cells. The measurement was performed with FACS CantoII (BD) using the humanized anti-GPC1 antibody (clone T2) and the humanized GPC1-ADC (MMAE) as primary antibodies at various concentrations and FITC labeled anti-human-IgG-FITC (Jackson Immuno Research, Catalog No. 109-095-098) as a secondary antibody, and the measurement data were analyzed using BD FACS Diva Software (BD).
The influence of conjugation of a payload with the humanized anti-GPC1 antibody (T2) on the antigen affinity was evaluated by analyzing the antibody concentration-dependent binding ability with FACS using GPC1 expression-positive BxPC3 cells.
On the technique in general: In flow cytometry, cells or beads pass a laser one at a time.

The target in assay [2] is T1, human GPC1 on the surface of …. In words: flow cytometry on TE8 cells, antibody titration, FITC anti-human IgG as secondary antibody. The procedure:
The measurement was performed with FACS CantoII (BD) using the human/mouse chimeric anti-GPC1 antibody (clone 01a033) and the humanized anti-GPC1 antibody (clone T2) as primary antibodies at various concentrations and FITC labeled anti-human-IgG-FITC (Jackson Immuno Research, Catalog No. 109-095-098) as a secondary antibody, and the measurement data were analyzed using BD FACS Diva Software (BD).

Assay [3] shares this target. In words: cell-based or functional assay.
Assay [4] concerns the target T2, recombinant human GPC1 protein (R&D Systems) (human, UniProt P35052 24-530).
T2 construct: Bought recombinant protein (R&D Systems); also called human GPC-1 antigen; Glypican-1
T2 sequence: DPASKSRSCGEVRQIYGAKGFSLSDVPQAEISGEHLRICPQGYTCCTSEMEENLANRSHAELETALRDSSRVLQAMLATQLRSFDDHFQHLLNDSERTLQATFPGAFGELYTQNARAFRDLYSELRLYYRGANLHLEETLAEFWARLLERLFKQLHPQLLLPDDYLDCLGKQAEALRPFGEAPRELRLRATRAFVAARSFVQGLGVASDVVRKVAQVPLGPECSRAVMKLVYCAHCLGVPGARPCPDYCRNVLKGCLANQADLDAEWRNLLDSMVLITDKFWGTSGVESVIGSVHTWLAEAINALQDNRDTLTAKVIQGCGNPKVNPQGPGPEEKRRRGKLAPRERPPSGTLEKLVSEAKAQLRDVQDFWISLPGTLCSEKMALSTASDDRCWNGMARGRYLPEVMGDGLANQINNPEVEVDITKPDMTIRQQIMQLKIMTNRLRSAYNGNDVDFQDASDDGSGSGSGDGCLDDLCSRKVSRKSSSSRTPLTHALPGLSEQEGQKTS
In words: SPR (Biacore 8K); antibody captured by anti-human IgG (Fc) on a CM5 chip, recombinant human GPC1 flowed over. As to the method:
The mouse anti-human-GPC1 monoclonal antibody was humanized (subclass: IgG4), and the obtained twenty clones (T1, T2, T3, T7, T8, T10, T11, T22, T26, T28, T29, T31, T32, T33, T34, T36, T43, T56, T57, T59) were prepared. An anti-human IgG (Fc) was immobilized on an sCM5 sensor chip (GE Healthcare) using Human antibody capture kit (GE Healthcare), and the affinity of each of these clones to a recombinant human GPC1 protein (R&D Systems) was measured using Biacore (registered trademark) 8K (GE Healthcare).

Assay [5] concerns the target T1, human GPC1 on the surface of …. In words: cell-based or functional assay. The source holds these as a separate data set.
The target is the same in assay [6]. Kind of assay: cell-based or functional assay. This is another data set of the same source.
Assay [7] addresses T3, MC38-mGPC1.
T3 mouse Glypican-1: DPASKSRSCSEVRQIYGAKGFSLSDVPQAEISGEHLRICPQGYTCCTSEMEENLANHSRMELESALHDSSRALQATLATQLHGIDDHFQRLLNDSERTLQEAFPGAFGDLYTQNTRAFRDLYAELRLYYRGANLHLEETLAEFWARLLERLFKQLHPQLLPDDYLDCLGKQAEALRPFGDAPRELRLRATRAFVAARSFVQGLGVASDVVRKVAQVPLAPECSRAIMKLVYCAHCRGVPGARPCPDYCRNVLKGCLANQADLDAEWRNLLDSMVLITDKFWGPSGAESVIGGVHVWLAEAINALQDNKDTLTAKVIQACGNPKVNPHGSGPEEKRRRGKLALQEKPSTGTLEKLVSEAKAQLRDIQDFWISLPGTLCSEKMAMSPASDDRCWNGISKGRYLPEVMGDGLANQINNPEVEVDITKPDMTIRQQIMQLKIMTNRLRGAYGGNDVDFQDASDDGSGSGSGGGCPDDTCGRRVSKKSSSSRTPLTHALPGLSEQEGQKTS
Kind of assay: cell-based or functional assay.

B1: humanized anti-GPC1 antibody (clone T2) (antibody, human IgG4 S228P, kappa, V domains shown)
VH: QVQLVQSGAEVKKPGASVKVSCKASGYTFTGYYMHWVRQAPGQGLEWMGEINPSTGDTTYNQKFKARVTMTRDTSTSTVYMELSSLRSEDTAVYYCAREKRDDGVFAYWGQGTLVTVSS
VL: DIVMTQSPSFLSASVGDRVTITCRASQGISSYLVWYQQKPGKPPKLLIYSASVLQSGVPSRFSGRGYGTDFTLTISSLQPEDFATYYCQQSFSIPPVTFGGGTKVEIKR
notes: IgG; also called humanized anti-GPC1 antibody (T2); unlabeled antibody
B1 registered a dissociation constant Kd in assay [1] of 0.529 nM. The molecule also gave a Kd in assay [2] of 1.89 nM. The “IC50 of cytotoxicity on TE14 cells (ATP cell viability, 144 h) with MMAF-linked anti-human-IgG Fab as secondary antibody” value (from here on “IC50 of cytotoxicity on TE14 cells”) in assay [3] came to 0.0361 nM. Also, in assay [4], the Kd amounted to 5.2 nM, the koff amounted to 0.00125 s⁻¹ and the kon amounted to 240000 M⁻¹ s⁻¹.

B2: humanized anti-GPC1 monoclonal antibody clone T8 (antibody, human IgG4 S228P, kappa, V domains shown)
VH: QVQLVQSGAEVKKPGASVKVSCKASGYTFTGYYMHWVRQAPGQGLEWMGEINPSTGDTTYNQKFKARVTMTRDTSTSTVYMELSSLRSEDTAVYYCAREKRDDGVFAYWGQGTLVTVSS
VL: EIVMTQSPSSVSASVGDRVTITCRTSQSISSYLNWYQLRPGRAPKLLIYAASNLQSGVPSRFSGSGFGTDFTLTISSVQPEDFATYYCQQAKSYPLTFGGGTKVDIKR
notes: IgG
As to B2, in assay [3], the “IC50 of cytotoxicity on TE14 cells” value was found to be 0.0379 nM. For the same molecule, in assay [4], the Kd was 5.07 nM, the koff was 0.00118 s⁻¹ and the on-rate (kon) was determined as 234000 M⁻¹ s⁻¹.

B3: humanized anti-GPC1 monoclonal antibody clone T56 (antibody, human IgG4 S228P, kappa, V domains shown)
VH: QVQLVQSGAEVKKPGASVKVSCKASGYTFTGYYMHWVRQAPGQGLEWMGEINPSTGDTTYNQKFKARVTMTRDTSTSTVYMELSSLRSEDTAVYYCAREKRDDGVFAYWGQGTLVTVSS
VL: DIVMTQSPSTLSASVGDRVTIICRASQSIGPWLAWYQQKSGKAPKLLIYGASNLQSGVPSRFSGSGYGTDFTLTISSLQPEDFATYYCQQTSSAPFTFGPGTKVDIKR
notes: IgG
As to B3, the “IC50 of cytotoxicity on TE14 cells” value in assay [3] stood at 0.0501 nM. Further, in assay [4], the Kd is 6.93 nM, the koff is 0.0018 s⁻¹ and the kon was determined as 259000 M⁻¹ s⁻¹.

B4: humanized GPC1-ADC (MMAE) (antibody, V domains shown)
VH: QVQLVQSGAEVKKPGASVKVSCKASGYTFTGYYMHWVRQAPGQGLEWMGEINPSTGDTTYNQKFKARVTMTRDTSTSTVYMELSSLRSEDTAVYYCAREKRDDGVFAYWGQGTLVTVSS
VL: DIVMTQSPSFLSASVGDRVTITCRASQGISSYLVWYQQKPGKPPKLLIYSASVLQSGVPSRFSGRGYGTDFTLTISSLQPEDFATYYCQQSFSIPPVTFGGGTKVEIKR
modifications: MC-vc-PAB-MMAE linked by maleimide to cysteines of the reduced interchain disulfide bonds; DAR 4.0 for the whole antibody
notes: also called humanized anti-GPC1-ADC; humanized anti-GPC1-ADC (MMAE)
Regarding B4, in assay [5], the “IC50 of growth inhibition of Detroit562 cells (in-vitro ADC assay, CellTiter-Glo, 144 h)” value came to 0.724 nM; the “IC50 of growth inhibition of FaDu cells (in-vitro ADC assay, CellTiter-Glo, 144 h)” value is 0.3 nM; the “IC50 of growth inhibition of HeLa cells (in-vitro ADC assay, CellTiter-Glo, 144 h)” value stood at 0.259 nM. In assay [1], this molecule yielded a Kd of 0.57 nM. In assay [6], the “IC50 of growth inhibition of Ho-1-u-1 cells (in-vitro ADC assay, CellTiter-Glo, 144 h)” value worked out at 0.329 nM and the “IC50 of growth inhibition of KON cells (in-vitro ADC assay, CellTiter-Glo, 144 h)” value was found to be 0.153 nM. Further, the “IC50 of growth inhibition of MC38-mGPC1 cells (in-vitro ADC assay)” value in assay [7] was determined as 2.29 nM.

B5: humanized anti-GPC1 monoclonal antibody clone T36 (antibody, human IgG4 S228P, kappa, V domains shown)
VH: QVQLVQSGAEVKKPGASVKVSCKASGYTFTGYYMHWVRQAPGQGLEWMGEINPSTGDTTYNQKFKARVTMTRDTSTSTVYMELSSLRSEDTAVYYCAREKRDDGVFAYWGQGTLVTVSS
VL: NIQMTQSPSSLSASVGDRVTITCQASQDISNYLNWYQQRPGKAPQLLIYGASNLERGVPSRFSGSGFGTDFTLTISSVQPEDFATYYCQQAKSYPLTFGGGTKVEIKR
notes: IgG
As to B5, the “IC50 of cytotoxicity on TE14 cells” value in assay [3] worked out at 0.0459 nM. Besides, in assay [4], the Kd amounted to 9.8 nM, the koff was determined as 0.00227 s⁻¹ and the kon worked out at 231000 M⁻¹ s⁻¹.

B6: humanized anti-GPC1 monoclonal antibody clone T29 (antibody, human IgG4 S228P, kappa, V domains shown)
VH: QVQLVQSGAEVKKPGASVKVSCKASGYTFTGYYMHWVRQAPGQGLEWMGEINPSTGDTTYNQKFKARVTMTRDTSTSTVYMELSSLRSEDTAVYYCAREKRDDGVFAYWGQGTLVTVSS
VL: DIVMTQSPSSLSASVGDRVTITCRASQDISSYLNWYQQKPGEAPKLLVYGASNLQRGVPPGFRGSGSGTDFTLTINNLQPEDFATYYCQQSSTSPITFGQGTRLEIKR
notes: IgG
As for B6, the “IC50 of cytotoxicity on TE14 cells” value in assay [3] stood at 2.18 nM. Moreover, in assay [4], the Kd turned out to be 324 nM, the koff was found to be 0.0664 s⁻¹ and the kon was 205000 M⁻¹ s⁻¹.

B7: humanized anti-GPC1 monoclonal antibody clone T57 (antibody, human IgG4 S228P, kappa, V domains shown)
VH: QVQLVQSGAEVKKPGASVKVSCKASGYTFTGYYMHWVRQAPGQGLEWMGEINPSTGDTTYNQKFKARVTMTRDTSTSTVYMELSSLRSEDTAVYYCAREKRDDGVFAYWGQGTLVTVSS
VL: EIVMTQSPSSLSASVGDRVTISCRTSQTIRHYLNWYQQKPGKAPKLLIYDASNLKTGVPSRFSGSGSGTSFTLTISSLQPDDFATYYCQQSYSTPRTFGQGTKVEIKR
notes: IgG
Take B7: the “IC50 of cytotoxicity on TE14 cells” value in assay [3] was 0.0459 nM. In assay [4], the Kd stood at 102 nM, the koff was 0.0135 s⁻¹ and the kon was 132000 M⁻¹ s⁻¹.

B8: human/mouse chimeric anti-GPC1 antibody (clone 01a033) (antibody, human IgG4 S228P, kappa, V domains shown)
VH: QVQLKQSGPELVKPGASVKISCKASGYSFTGYYMHWVKQSPEKSLEWIGEINPSTGDTTYNQKFKAKATLTVDKSSSTAYMQLKSLTSEDSAVYYCAREKRDDGVFAYWGQGTLVTVSS
VL: DIVMSQSPKSMSMSVGERVALSCKASENVGTYVSWYQQKPEQSPKLLIYGASNRYTGVPDRFTGSGSATDFTLTISSVQAEDLADYYCGQSYSYPLTFGAGTKLELKR
notes: also called chimeric mouse antibody (01a033); anti-GPC-1 chimeric antibody (01a033)
In the case of B8, in assay [2], the Kd is 2.38 nM. For the same molecule, the “IC50 of cytotoxicity on TE14 cells” value in assay [3] turned out to be 0.071 nM. Moreover, in assay [4], the Kd turned out to be 10.2 nM, the koff was 0.00309 s⁻¹ and the kon was found to be 302000 M⁻¹ s⁻¹.

As usually defined, the Kd is the constant that tells how readily two partners part at equilibrium. One may read the koff as a measure of how fast the partners let go of each other. In general, kon refers to a measure of how fast the partners come together.

The values are drawn from patent publication US20230250188A1 (NATIONAL UNIVERSITY CORPORATION KOCHI UNIVERSITY, published 2023).
